From article PMC2119780

Molecular target: fibronectin receptors (alpha5beta1) on the adherent CHO cell line (Chinese hamster (endogenous in CHO))
Assay: radioligand binding

- Kd: 95 nM
Substance: human plasma fibronectin (ligand; labeled with 125Iodine (modified Chloramine-T procedure) in the binding assays)
